One block for each molecule: values may come before it.
Columns and labels:
[1] = target: artificial endostatin dimer (UniProt P39060); assay: SPR (Biacore)
fibronectin = fibronectin (UniProt P02751 32-2477); assay: SPR (Biacore)

Kd [1]: 4.84 nM
Molecule: fibronectin (from UniProt P02751 32-2477)

Kd (fibronectin): 8.4 nM
B1: human NC-1 (hNC-1) trimer of collagen 18 (other)
chain: SGVRLWATRQAMLGQVHEVPEGWLIFVAEQEELYVRVQNGFRKVQLEARTPLPRGTDNEVAALQPPVVQLHDSNPYPRREHPHPTARPWRADDILASPPRLPEPQPYPGAPHHSSYVHLRPARPTSPPAHSHRDFQPVLHLVALNSPLSGGMRGIRGADFQCFQQARAVGLAGTFRAFLSSRLQDLYSIVRRADRAAVPIVNLKDELLFPSWEALFSGSEGPLKPGARIFSFDGKDVLRHPTWPQKSVWHGSDPNGRRLTESYCETWRTEAPSATGQASSLLGGRLLGQSAASCHHAYIVLCIENSFMTASK

Kd (fibronectin): 1.35 nM
B2: Human VEGF (R&D) (ligand)
chain: APMAEGGGQNHHEVVKFMDVYQRSYCHPIETLVDIFQEYPDEIEYIFKPSCVPLMRCGGCCNDEGLECVPTEESNITMQIMRIKPHQGQHIGEMSFLQHNKCECRPKKDRARQENPCGPCSERRKHLFVQDPQTCKCSCKNTDSRCKARQLELNERTCRCDKPRR

Source: US20140302026A1 (published 2014)
